The source of these data is patent publication US20200291391A1, “CROSS-LINKED EPITOPES AND METHODS OF USE THEREOF” (Indi Molecular, Inc., priority 2019, published 2020).

The target of test [1] is CD8 on CD8+ SupT1 cells (human) (UniProt P01732). In words: flow cytometry on CD8+ SupT1 cells. For orientation: In flow cytometry, cells or beads pass a laser one at a time.
Test [2] shares this target. In words: flow cytometry on CD8+ SupT1 cells. This is another data set of the same source.
The target is the same in test [3]. In words: flow cytometry on CD8+ SupT1 cells; ligand at 0.4 µM.
For test [4] the target is unchanged. In words: flow cytometry on CD8+ SupT1 cells; ligand at 4 µM, room temperature.
The target is the same in test [5]. In words: flow cytometry on CD8+ SupT1 cells; ligand at 0.05 µM.
The target is the same in test [6]. In words: flow cytometry on CD8+ SupT1 cells; ligand at 1.3 µM.
Test [7] has the same target. In words: flow cytometry on CD8+ SupT1 cells; ligand at 4 µM.
For test [8] the target is unchanged. In words: flow cytometry on CD8+ SupT1 cells; ligand at 0.15 µM.
Test [9] has the same target. In words: flow cytometry on CD8+ SupT1 cells; ligand at 4 µM, 4° C.
The target in test [10] is immobilized recombinant CD8 protein (UniProt P01732). In words: solid-phase ELISA on immobilized recombinant CD8 protein. A general note: In an ELISA, binding on a coated surface is turned into a signal by an enzyme label.

In general, EC50 refers to the concentration at which the effect is half-maximal.

Chain of CD8 on CD8+ SupT1 cells (human) (P01732 22-235): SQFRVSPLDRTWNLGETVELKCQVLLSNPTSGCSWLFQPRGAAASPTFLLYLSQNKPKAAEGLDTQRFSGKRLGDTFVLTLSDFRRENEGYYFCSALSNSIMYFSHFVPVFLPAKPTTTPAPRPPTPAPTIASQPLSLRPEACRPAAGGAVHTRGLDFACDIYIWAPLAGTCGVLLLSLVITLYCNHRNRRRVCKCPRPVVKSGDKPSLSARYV

For the substance “Biotin-1kPEG-rpyay (SEQ ID NO: 35) (peptide)”, in test [1], the MFIR (Mean Fluorescence Intensity Ratio) (ratio relative to Biotin1k-PEG) was determined as 1.

As for “Biotin-1kPEG-cy(krsah) (SEQ ID NO: 27) (peptide)”, the MFIR (Mean Fluorescence Intensity Ratio) (ratio relative to unstained) in test [1] stood at 1.6.

Regarding “Biotin anti-CD8a Ab (Clone RPA-T8) (antibody)”, the MFIR (Mean Fluorescence Intensity Ratio) (ratio relative to unstained) in test [2] stood at 86.6; in test [1], 73.9.

Take “Biotin-1kPEG-cy(snprk) (SEQ ID NO: 28) (peptide)”: the MFIR (Mean Fluorescence Intensity Ratio) (ratio relative to unstained) in [1] was determined as 1.1.

With “Biotin-1kPEG-cy(tfpkk) (SEQ ID NO: 21) (peptide)”, the MFIR (Mean Fluorescence Intensity Ratio) (ratio relative to unstained) in test [3] stood at 1.1; in test [4], 1.5; in test [5], 1; in test [6] it was 1.1; in [7], 1.5; in [1] it was 1.8. Further, the MFIR (Mean Fluorescence Intensity Ratio) (ratio relative to unstained) came to 1 in test [8] and 1.5 in [9].

Regarding “Biotin-1kPEG-yfrsr (SEQ ID NO: 33) (peptide)”, the MFIR (Mean Fluorescence Intensity Ratio) (ratio relative to Biotin1k-PEG) in test [1] stood at 1.1.

“Biotin-1kPEG-yrpfy (SEQ ID NO: 31) (peptide)”: the MFIR (Mean Fluorescence Intensity Ratio) (ratio relative to Biotin1k-PEG) in test [1] was 1.1.

As to “Biotin-1kPEG-vlyrr (SEQ ID NO: 30) (peptide)”, the EC50 in [10] was determined as 77 nM. Moreover, in test [1], the MFIR (Mean Fluorescence Intensity Ratio) (ratio relative to Biotin1k-PEG) was determined as 2.

With “Biotin-1kPEG-yrsny (SEQ ID NO: 34) (peptide)”, the MFIR (Mean Fluorescence Intensity Ratio) (ratio relative to Biotin1k-PEG) in test [1] amounted to 1.

As to “Biotin-1kPEG-rftaf (SEQ ID NO: 37) (peptide)”, the MFIR (Mean Fluorescence Intensity Ratio) (ratio relative to Biotin1k-PEG) in [1] came out at 1.1.

With “Biotin-1kPEG-nfyrr (SEQ ID NO: 32) (peptide)”, the EC50 in test [10] is 47 nM. For the same substance, the MFIR (Mean Fluorescence Intensity Ratio) (ratio relative to Biotin1k-PEG) in test [1] was found to be 1.2.

Consider “Biotin-1kPEG-aykfn (SEQ ID NO: 36) (peptide)”, for which, in [1], the MFIR (Mean Fluorescence Intensity Ratio) (ratio relative to Biotin1k-PEG) came to 1.1.
